The nature of this data set: yeast display, Sf9 membrane polyspecificity reagent, FACS + sequencing; frameworks hold sequencing errors. Summed up: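 Polyreactivity labels are assigned by the sorting gate from which each nanobody was recovered. The gates were low and high (top ~1%), set on anti-HA fluorescence for expression and streptavidin fluorescence for reagent binding. Before sorting, galactose-induced (36–48 hours) yeast display cells were stained for 1 hour at 4 °C with 10% biotinylated, detergent-solubilized Sf9 membrane reagent.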
As for “QVQLVESGGGLVQAGGSLRLAVLPPVLPSTLNDMGWYRQAPGKERELVAAITRGGSTNYADSVKGRFTISRDNAKNTVYLQMNSQKPEDTAVYYCAAPYAGWRDGGDNWGQGTQVTVSS”, the “polyreactivity (PSR sort gate)” value is reported as “low polyreactivity”.

Consider “QVQLVESGGGLVQAGGSLRLCCAASGLIFRRYTMGWYRQAPGKERELVAAISWRVGRTYYADSVKGRFTISRDNAKNTVYLEMNSLKPEDTAVYYCAAILYQYDTPQVSSSRLDYWGQGTQVTVSS”, for which the “polyreactivity (PSR sort gate)” value was “high polyreactivity”.

As for “QVQLVESGGGLVQAGGSLRLCCAASGSIFRPNAMGWYRQAPGKERELVAGISSRGGSTYYADSVKGRFTISRDNAKNTVYLQMNSLKPEDTAVYYCNALTYSSQRNSFYYSFDHWGQGTQVTVSS”, the “polyreactivity (PSR sort gate)” value is “high polyreactivity”.

Consider “QVQLVESGGGLVQAGGSLRLCCAASGSTFGWNAMRSYRQAPGNERELVAAISSSGGITYYADSVKGRFPISRDNAKNTVYLQMNSLKPEDTAVYYCAAERDDDWFNYWGQGTQVTVSS”, for which the “polyreactivity (PSR sort gate)” value is on record as “low polyreactivity”.

For the sequence “QVQLVESGGGLVQAGGSLRLICAASGASFFDKDMGWYRQAPGKERELVAAAITARGGSTYYADSVKGRFTISRDNAKNTVYLQMNSLKPEDTAVYYCAAGRPGELDYWGQGTQVTVSS”, the “polyreactivity (PSR sort gate)” value is “low polyreactivity”.

Regarding “QVQLVESGGGLVQAGGSLRLICAASGFIFDTYTMGWYRQAPGKERELVAAISRSGASTYYADSVKGRFTISRDNAKNTVYLQMNSLKPEDTAVYYCATVYYPSYRGGYDYWGQGTQVTVSS”, the “polyreactivity (PSR sort gate)” value is “high polyreactivity”.

Consider “QVQLVESGGGLVQAGGSLRLICAASGFIFDYNTMGWYRPAPGKERELVAGITSGGSTNYADSVKGRFTISRDNAKNTVYLQMNSLKPEDTAVYYCATVDDEYYGYDYWGQGSQVTVSS”, for which the “polyreactivity (PSR sort gate)” value was “low polyreactivity”.

“QVQLVESGGGLVQAGGSLRLICAASGFIFESNAMGWYRQAPGKERELVAAITSAGRTYYADSVKGRFTISRDNAKNTVYLQMNSLKPEDNAVYYCNATRSRYRYDYWGQGTQVTVSS”: the “polyreactivity (PSR sort gate)” value was “high polyreactivity”.

Consider “QVQLVESGGGLVQAGGSLRLICAASGFIFLDYAMGWSRPAPGKERELVAAISSRGARTYYADSVKGRFTISRDNEKNTVYLQMNSLKPEDTAVYYCAARGPLDRYGYWGQGTQVTVSS”, for which the “polyreactivity (PSR sort gate)” value was “high polyreactivity”.

In the case of “QVQLVESGGGLVQAGGSLRLICAASGFIFNAYAMGWYRQAPGKERELVAAISTRGSNTYYADSVKGRFTISRDNAKNTVYLQMNSLKPEDTAVYYCNRVFSYQYKRDYWGQGTQVTVSS”, the “polyreactivity (PSR sort gate)” value is “high polyreactivity”.

As for “QVQLVESGGGLVQAGGSLRLICAASGFIFPDYTMGWYRHAPGKERELVAAINVSGGSTYYADSVKGRFTISRDHAKNTVYLQMNSLKPEDTAVYYCAAVGGRFVRRSTMDYWGQGTQVTVSS”, the “polyreactivity (PSR sort gate)” value was “low polyreactivity”.

For the sequence “QVQLVESGGGLVQAGGSLRLICAASGFIFRRYAMGWYRQSPGKERELVAAISSRGGSTYYADSVKGRFTISRDNAKNTVYLQMNSLKPEDTAVYYCAAYDAVTYPFDYWGQGTQVTVSS”, the “polyreactivity (PSR sort gate)” value was “high polyreactivity”.

Consider “QVQLVESGGGLVQAGGSLRLICAASGFIIRYYAMGWYRQAPGKERELVAVISASGGSTYYADSVKGRFTISRDNAKNTVYLQMNSLKPEDTAVYYCNTKRYFFHRGDMDYWGQGTQVTVSS”, for which the “polyreactivity (PSR sort gate)” value is “high polyreactivity”.

Consider “QVQLVESGGGLVQAGGSLRLICAASGFIIYSYAMGWYRQAPGKERELVAGITSDGRTYYADSVKGRFTISRDNAKNTVYLQMNSQKPEDTAVSYCAARYYLFYRVSPYYYWGQGTQVTVSS”, for which the “polyreactivity (PSR sort gate)” value was “low polyreactivity”.

With “QVQLVESGGGLVQAGGSLRLICAASGFISNINVMGWYRQAPGKERELVAAITYIDGSTFYADSVKGRFTISRDNAKNTVYLQMNSLKPEDTAVYYCAKTRVRGSEFGYWGQGTQVTVSS”, the “polyreactivity (PSR sort gate)” value is “low polyreactivity”.

As to “QVQLVESGGGLVQAGGSLRLICAASGFTFDANAMGWYRQAPGKERELVAAITRVGSTFYADSVKGRFTISRDNAKNTVYLQMNSLKPEDTAVYYCNAARDHVSGYVYWGQGTQVTVSS”, the “polyreactivity (PSR sort gate)” value is “low polyreactivity”.

For “QVQLVESGGGLVQAGGSLRLICAASGFTFEYYAMGWYRQAPGKERELVAAISGSGVSTYYADSVKGRFTISRDNAKNTVYLQMNSLNPEDTAVYYCAALGDKYGSNRLDHYWYIWYDSWGQGTQVTVSS”, the “polyreactivity (PSR sort gate)” value is on record as “low polyreactivity”.

Take “QVQLVESGGGLVQAGGSLRLICAASGFTFFAYAMGWYRQAPGKERELVAGISRSGGRTYYADSVKGRFTISRDNAKNTVYLQMNSLKPEDTAVYYCAAGIPVTSRFYGMDWGQGTQVTVSS”: the “polyreactivity (PSR sort gate)” value is recorded as “high polyreactivity”.

“QVQLVESGGGLVQAGGSLRLICAASGFTFGYYAMGWYRQAPGKERELVAAITSRGTRTSYADSVKGRFTISRDNEKNTVYLQMNSLKPEDTAVNYCAARVLRGLGEYYWGQGTQVTVSS”: the “polyreactivity (PSR sort gate)” value is “high polyreactivity”.

As to “QVQLVESGGGLVQAGGSLRLICAASGFTFSINTRGWYRQAPGKEREFVAGISRSGGSTYYADSVKGRFTISRDNAKNTVYLQMNSLKPEDTAVYYCNADRYSWYTPLGYDYWGQGTQVNVSS”, the “polyreactivity (PSR sort gate)” value is reported as “high polyreactivity”.

In the case of “QVQLVESGGGLVQAGGSLRLICAASGFTFVRYTMGWYRQAPGKERELVAVIRRGGSTYYADSVKGRFTISRDNAKNTVYLQMNSLKPEDTAVYYCNALSALAVEDGYWGQGTQVTVSS”, the “polyreactivity (PSR sort gate)” value is reported as “low polyreactivity”.

Turning to “QVQLVESGGGLVQAGGSLRLICAASGGIFDFYAMGWYRQAPGKERELVAAITRSGSSTFYADSVKGRFTISRDNAKNTVYLQMNSLKPEDTAVYYCAAPYYYFAVYYGYIFEYDYWGQGTQVTVSS”, the “polyreactivity (PSR sort gate)” value is listed as “low polyreactivity”.

On to “QVQLVESGGGLVQAGGSLRLICAASGGISLYYVKGWYRQAPGKERELVADISGDDSTNYADSVKGRFTISRDNAKNTVYLQMNSLKPEDTAVYYSAAVPGLFYLPYDYWGQGTQVTVSS”, for which the “polyreactivity (PSR sort gate)” value is on record as “low polyreactivity”.

On to “QVQLVESGGGLVQAGGSLRLICAASGGTFRYYTMVWYRQAPGKERELVAAITRGGRTYYADSVKGRFTISRDNAKNTVYIQMNSLKPEDTAVYYCAGVRPRSPVSYENDYWGQGTQVTVSS”, for which the “polyreactivity (PSR sort gate)” value was “high polyreactivity”.

For “QVQLVESGGGLVQAGGSLRLICAASGIFSYYARGWYRQAPGKERELVATISRRGSSTYYADSVKGRFTISRDNAKNTVYLQMNSLKPEDTAVYYCNADIGWGRFSQSFDYWGQGTQVTVSS”, the “polyreactivity (PSR sort gate)” value is reported as “low polyreactivity”.

For the sequence “QVQLVESGGGLVQAGGSLRLICAASGIIFDPNAMGWYRQAPGKERELVAAITHTGSTSYADSVKGRFTISRDNAKNTVYLQMNRLNPEDTAVYYCAAGTWVRAWYRYWYDFEYWGQGTQVTVSS”, the “polyreactivity (PSR sort gate)” value is recorded as “high polyreactivity”.

For “QVQLVESGGGLVQAGGSLRLICAASGIIFFDYAMGWYRQAPGKEREMVAAISSGGGNTYYADSVKGRFTISRDNAKNTVYLQMNSLKPEDTAVYYCAAEPYIYGEQGAYDYWGQGTQVTVSS”, the “polyreactivity (PSR sort gate)” value is given as “low polyreactivity”.

For the sequence “QVQLVESGGGLVQAGGSLRLICAASGIIFNYNAMGWYRQAPGNERELVATISSGDSTNYADSVKGRFTISRDNAKNTVYLQMNSLKPEDTAVYYCAAESPSVFEGYAQLYIILEDYWGQGTQVTVSS”, the “polyreactivity (PSR sort gate)” value is “low polyreactivity”.

On to “QVQLVESGGGLVQAGGSLRLICAASGIIFPFYVMGWYRQAPGKERELVAAITWSGDGTYYADSVKGRFTISRDNAKNTVYLQMNSLKPEDTAVYYCAAQWYYGGVKYYYWGQGTIVTVSS”, for which the “polyreactivity (PSR sort gate)” value is “low polyreactivity”.

“QVQLVESGGGLVQAGGSLRLICAASGIILAYAMGWYRQAPGKERELVAAISGRAGSTYYADSVKGRFTISRDNAKNTVYLHMNSLTPEDTAVYYCAKRISYLPVEMDYWGQGTQVTVSS”: the “polyreactivity (PSR sort gate)” value is listed as “low polyreactivity”.

As for “QVQLVESGGGLVQAGGSLRLICAASGIILGHKAMGWYRQAPGKERELVATITTRGGSTYYADSVKGRFTISRDNAKNTVYLQMNSLKPEDTAVFYCAARPYKSLHYWYDYWGQGTQVTVSS”, the “polyreactivity (PSR sort gate)” value is “low polyreactivity”.

For “QVQLVESGGGLVQAGGSLRLICAASGITFPHYAMGWYRQAPGKEREYVAAISKRAGSTYYADSVKGRFTISLDNAKNTVYLQMNSLKPEDTSVYYCAADDRYYSPYGFKYWGQCTQVTVSS”, the “polyreactivity (PSR sort gate)” value is on record as “high polyreactivity”.

In the case of “QVQLVESGGGLVQAGGSLRLICAASGITFPINTKGWYRQAPGKERELVAGIDWTGGSTYYADSVKGRFTISRDNAKNTVYLQMNSLKPEDTAVYYCAAEFFREGSPRAGSKMDYWGQGTQVTVSS”, the “polyreactivity (PSR sort gate)” value was “low polyreactivity”.

As for “QVQLVESGGGLVQAGGSLRLICAASGITFSVYTMGWYRQAPGKERELVAAIDSDGITNYADSVKGRFTISRDNAKNTVYLQLNSLKPEDTAVYYCAKQSGRADGVSGFDYWGQGTQVTVSS”, the “polyreactivity (PSR sort gate)” value is recorded as “low polyreactivity”.

Regarding “QVQLVESGGGLVQAGGSLRLICAASGITFYIYGMGWYRQAPGKERELVAAITSGGSTYYADSVKGRFTISRDNAKNTVYLQMNSLKPEDTAVYYCAAGRYYGKGYYYWGQGTQVTVSS”, the “polyreactivity (PSR sort gate)” value was “high polyreactivity”.

In the case of “QVQLVESGGGLVQAGGSLRLICAASGITFYRYDMGWYRQAPGKERELVAAISTRGGSTYYADSVKGRFTISRDNAKNTVYLQMNSLKPEDTAVYYCAKERVGTSLPFKDYYWGQGTQVTVSS”, the “polyreactivity (PSR sort gate)” value is “low polyreactivity”.

As for “QVQLVESGGGLVQAGGSLRLICAASGITTRSNAMGWYRQAPGKERDFVAAITSRGGSTYYAYSVKGRFTISRDNAKNTVYLQMNSLKPEDTAVYYCAKGKYPDKKSRHVTLYDYWGQGTQVTVSS”, the “polyreactivity (PSR sort gate)” value is recorded as “high polyreactivity”.

On to “QVQLVESGGGLVQAGGSLRLICAASGITYRYAMGWYRQAPGKERELVAAITSSGASTYYADSVKGRFTISRDNAKNTVYLQMNSLKPEDTAVYYCATPLRKVYGGYVYWGQGTQVTVSS”, for which the “polyreactivity (PSR sort gate)” value was “low polyreactivity”.

Regarding “QVQLVESGGGLVQAGGSLRLICAASGLIFGKYAMGWYRQAPGKEREFVAAITRSGGSTYYADSVKGRFTISRDNAKNTVYLQMNSLKPEDTAVYYCAAYSLKYYNGYDYWGQGTQVTVSS”, the “polyreactivity (PSR sort gate)” value was “high polyreactivity”.

“QVQLVESGGGLVQAGGSLRLICAASGLIFYRNAMGWYRQAPGKERELVAAISSGGRTYYADSVKGRFTISRDNEKNTVYLQMNSLKPEDTAVYYCAASYWKPHRESGYDYWGQGTQVTVSS”: the “polyreactivity (PSR sort gate)” value is “high polyreactivity”.

These data come from the nanobody polyreactivity screen of Harvey et al. (2022).
